Reference: the supplement of paper PMC5998384

Experiments:
HeLa Kyoto [1] = test: thermal stability score vs G1/S (z-score of summed log2 fold changes over temperatures); higher = more thermally stable than in G1/S
HeLa Kyoto [2] = test: solubility change mitosis vs G1/S (difference of NP-40 vs SDS log2 ratios) (log2 ratio difference); higher = more soluble in mitosis
HeLa Kyoto [3] = test: solubility in G1/S (NP-40 vs SDS abundance) (log2 ratio); higher = more soluble; conditions: cell cycle stage: G1/S
HeLa Kyoto [4] = test: melting temperature (median over replicates), in situ; higher = more thermally stable
[5] = cell cycle stage: early G1 (4.5 h after nocodazole release)
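Wherever melting temperature (median over replicates), in situ is given: HeLa Kyoto cells synchronized by double thymidine or nocodazole block, proteins quantified by TMT10plex mass spectrometry, three independent biological replicates.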
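Wherever solubility change mitosis vs G1/S (difference of NP-40 vs SDS log2 ratios) is given: synchronized HeLa Kyoto cells (double thymidine block for G1/S, nocodazole release for mitosis), protein amounts in NP-40 versus SDS lysates quantified by mass spectrometry, three biological replicates.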
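Wherever solubility in G1/S (NP-40 vs SDS abundance) is given: HeLa Kyoto cells arrested at G1/S by double thymidine block, proteins quantified by TMT10plex mass spectrometry in mild NP-40 versus SDS extracts, three biological replicates.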
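Wherever thermal stability score vs G1/S (z-score of summed log2 fold changes over temperatures) is given: synchronized HeLa Kyoto cells, proteins quantified by TMT10plex mass spectrometry, three biological replicates, mitosis taken 0.5 h after nocodazole release, G1/S directly after double thymidine block.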

Sequence of GFM1 (chain, as listed by the source): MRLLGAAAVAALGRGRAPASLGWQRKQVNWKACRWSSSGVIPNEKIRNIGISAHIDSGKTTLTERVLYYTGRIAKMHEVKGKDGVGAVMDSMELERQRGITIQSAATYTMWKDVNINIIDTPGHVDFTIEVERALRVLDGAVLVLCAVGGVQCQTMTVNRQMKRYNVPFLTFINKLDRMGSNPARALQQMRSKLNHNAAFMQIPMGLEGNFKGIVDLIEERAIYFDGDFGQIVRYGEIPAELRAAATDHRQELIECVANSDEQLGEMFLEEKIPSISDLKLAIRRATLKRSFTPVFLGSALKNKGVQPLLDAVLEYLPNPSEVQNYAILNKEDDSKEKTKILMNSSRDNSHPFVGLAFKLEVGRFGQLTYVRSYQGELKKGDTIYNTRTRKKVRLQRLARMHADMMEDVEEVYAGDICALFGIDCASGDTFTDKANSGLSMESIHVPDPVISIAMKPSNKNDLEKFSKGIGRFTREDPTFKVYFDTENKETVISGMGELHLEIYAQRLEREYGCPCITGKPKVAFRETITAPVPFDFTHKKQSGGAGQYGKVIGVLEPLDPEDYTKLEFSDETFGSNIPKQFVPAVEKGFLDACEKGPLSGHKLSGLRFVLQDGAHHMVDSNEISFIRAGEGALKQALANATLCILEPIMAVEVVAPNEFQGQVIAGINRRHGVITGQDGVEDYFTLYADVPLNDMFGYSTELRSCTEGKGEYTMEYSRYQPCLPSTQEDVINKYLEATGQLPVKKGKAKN
Sequence of FXR2 (chain, as listed by the source): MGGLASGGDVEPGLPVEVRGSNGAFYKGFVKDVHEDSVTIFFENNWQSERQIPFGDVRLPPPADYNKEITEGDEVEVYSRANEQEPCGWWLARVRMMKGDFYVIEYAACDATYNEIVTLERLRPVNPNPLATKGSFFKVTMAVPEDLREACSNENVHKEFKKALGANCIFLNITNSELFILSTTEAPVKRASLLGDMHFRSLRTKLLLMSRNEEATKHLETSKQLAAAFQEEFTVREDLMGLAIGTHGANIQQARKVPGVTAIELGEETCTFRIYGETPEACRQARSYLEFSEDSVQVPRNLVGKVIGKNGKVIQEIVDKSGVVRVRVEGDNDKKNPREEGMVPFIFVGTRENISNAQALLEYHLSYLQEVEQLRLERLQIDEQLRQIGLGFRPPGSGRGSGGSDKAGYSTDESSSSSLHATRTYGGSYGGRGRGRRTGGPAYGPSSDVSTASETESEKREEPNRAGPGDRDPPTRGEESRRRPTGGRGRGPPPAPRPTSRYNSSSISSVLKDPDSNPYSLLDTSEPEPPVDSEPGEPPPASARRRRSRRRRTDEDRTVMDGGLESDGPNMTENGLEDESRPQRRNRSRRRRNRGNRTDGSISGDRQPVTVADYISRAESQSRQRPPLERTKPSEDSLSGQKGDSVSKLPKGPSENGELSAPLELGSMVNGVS

| Substance | thermal stability score (HeLa Kyoto [1]; [5]) | thermal stability score (HeLa Kyoto [1]; cell cycle stage: mitosis) | solubility change mitosis (log2) (HeLa Kyoto [2]) | solubility in G1/S (log2) (HeLa Kyoto [3]) | melting temperature (HeLa Kyoto [4]; cell cycle stage: G1/S) | melting temperature (HeLa Kyoto [4]; cell cycle stage: mitosis) |
| --- | --- | --- | --- | --- | --- | --- |
| MAAPSWRGARLVQSVLRVWQVGPHVARERVIPFSSLLGFQRRCVSCVAGSAFSGPRLASASRSNGQGSALDHFLGFSQPDSSVTPCVPAVSMNRDEQDVLLVHHPDMPENSRVLRVVLLGAPNAGKSTLSNQLLGRKVFPVSRKVHTTRCQALGVITEKETQVILLDTPGIISPGKQKRHHLELSLLEDPWKSMESADLVVVLVDVSDKWTRNQLSPQLLRCLTKYSQIPSVLVMNKVDCLKQKSVLLELTAALTEGVVNGKKLKMRQAFHSHPGTHCPSPAVKDPNTQSVGNPQRIGWPHFKEIFMLSALSQEDVKTLKQYLLTQAQPGPWEYHSAVLTSQTPEEICANIIREKLLEHLPQEVPYNVQQKTAVWEEGPGGELVIQQKLLVPKESYVKLLIGPKGHVISQIAQEAGHDLMDIFLCDVDIRLSVKLLK [ERAL1] | -1.87 | -1.48 | -0.061 | 0.33 | 51.2 °C | 50.9 °C |
| MLGMIKNSLFGSVETWPWQVLSKGDKEEVAYEERACEGGKFATVEVTDKPVDEALREAMPKVAKYAGGTNDKGIGMGMTVPISFAVFPNEDGSLQKKLKVWFRIPNQFQSDPPAPSDKSVKIEEREGITVYSMQFGGYAKEADYVAQATRLRAALEGTATYRGDIYFCTGYDPPMKPYGRRNEIWLLKT [HEBP1] | -1.08 | -2.04 | 0.0399 | 0.27 | 52.9 °C | 53.3 °C |
| MSGAALGLEIVFVFFLALFLLHRYGDFKKQHRLVIIGTLLAWYLCFLIVFILPLDVSTTIYNRCKHAAANSSPPENSNITGLYATANPVPSQHPCFKPWSYIPDGIMPIFWRVVYWTSQFLTWILLPFMQSYARSGGFSITGKIKTALIENAIYYGTYLLIFGAFLIYVAVNPHLHLEWNQLQTIGIAAANTWGLFLLVLLLGYGLVEIPRSYWNGAKRGYLLMKTYFKAAKLMTEKADAEENLEDAMEEVRKVNESIKYNHPLRKCVDTILKKCPTEYQEKMGRNMDDYEDFDEKHSIYPSEKSLVKLHKQVIYSVQRHRRTQVQWQILLEQAFYLEDVAKNETSATHQFVHTFQSPEPENRFIQYFYNPTFEWYWECLLRPWFYKILAVVLSIFSVIVVWSECTFFSTTPVLSLFAVFIQLAEKTYNYIYIEIACFLSIFFLSICVYSTVFRIRVFNYYYLASHHQTDAYSLLFSGMLFCRLTPPLCLNFLGLTHMDSSISHKNTQPTAYTSIMGSMKVLSFIADGFYIYYPMLVVILCIATYFSLGTRCLNLLGFQQFMGDDDMTSDLVNEGKELIRKEKRKRQRQEEGENRRREWKERYGHNREDSTRNRNIHTDPKESNFSDVNTNRSAFKYTRANNRTERDRIELLQDAEPLDFNAETFTDDPLESESGRYQPGGRYLSMSRSDIFNDV [LMBRD2] | -0.0528 | -1.48 | -0.00686 | -0.331 | 55.4 °C | 53.8 °C |
| MAEPFLSEYQHQPQTSNCTGAAAVQEELNPERPPGAEERVPEEDSRWQSRAFPQLGGRPGPEGEGSLESQPPPLQTQACPESSCLREGEKGQNGDDSSAGGDFPPPAEVEPTPEAELLAQPCHDSEASKLGAPAAGGEEEWGQQQRQLGKKKHRRRPSKKKRHWKPYYKLTWEEKKKFDEKQSLRASRIRAEMFAKGQPVAPYNTTQFLMDDHDQEEPDLKTGLYSKRAAAKSDDTSDDDFMEEGGEEDGGSDGMGGDGSEFLQRDFSETYERYHTESLQNMSKQELIKEYLELEKCLSRMEDENNRLRLESKRLGGDDARVRELELELDRLRAENLQLLTENELHRQQERAPLSKFGD [HEXIM1] | -4.2 | -2.03 | 0.123 | 0.211 | 57.6 °C | 55.5 °C |
| MSLEQRSLHCKPEEALEAQQEALGLVCVQAATSSSSPLVLGTLEEVPTAGSTDPPQSPQGASAFPTTINFTRQRQPSEGSSSREEEGPSTSCILESLFRAVITKKVADLVGFLLLKYRAREPVTKAEMLESVIKNYKHCFPEIFGKASESLQLVFGIDVKEADPTGHSYVLVTCLGLSYDGLLGDNQIMPKTGFLIIVLVMIAMEGGHAPEEEIWEELSVMEVYDGREHSAYGEPRKLLTQDLVQEKYLEYRQVPDSDPARYEFLWGPRALAETSYVKVLEYVIKVSARVRFFFPSLREAALREEEEGV [MAGEA1] | 0.313 | 2.38 | -0.0297 | -0.178 | 48.4 °C | 49.5 °C |
| MLRAPGCLLRTSVAPAAALAAALLSSLARCSLLEPRDPVASSLSPYFGTKTRYEDVNPVLLSGPEAPWRDPELLEGTCTPVQLVALIRHGTRYPTVKQIRKLRQLHGLLQARGSRDGGASSTGSRDLGAALADWPLWYADWMDGQLVEKGRQDMRQLALRLASLFPALFSRENYGRLRLITSSKHRCMDSSAAFLQGLWQHYHPGLPPPDVADMEFGPPTVNDKLMRFFDHCEKFLTEVEKNATALYHVEAFKTGPEMQNILKKVAATLQVPVNDLNADLIQVAFFTCSFDLAIKGVKSPWCDVFDIDDAKVLEYLNDLKQYWKRGYGYTINSRSSCTLFQDIFQHLDKAVEQKQRSQPISSPVILQFGHAETLLPLLSLMGYFKDKEPLTAYNYKKQMHRKFRSGLIVPYASNLIFVLYHCENAKTPKEQFRVQMLLNEKVLPLAYSQETVSFYEDLKNHYKDILQSCQTSEECELARANSTSDEL [MINPP1] | 4.83 | 4.74 | -0.069 | 0.459 | 54.4 °C | 55.7 °C |
| FXR2 | -1.1 | -0.108 | 0.38 | -1.13 | 52.6 °C | 51.7 °C |
| MLCGRWRRCRRPPEEPPVAAQVAAQVAAPVALPSPPTPSDGGTKRPGLRALKKMGLTEDEDVRAMLRGSRLRKIRSRTWHKERLYRLQEDGLSVWFQRRIPRAPSQHIFFVQHIEAVREGHQSEGLRRFGGAFAPARCLTIAFKGRRKNLDLAAPTAEEAQRWVRGLTKLRARLDAMSQRERLDHWIHSYLHRADSNQDSKMSFKEIKSLLRMVNVDMNDMYAYLLFKECDHSNNDRLEGAEIEEFLRRLLKRPELEEIFHQYSGEDRVLSAPELLEFLEDQGEEGATLARAQQLIQTYELNETAKQHELMTLDGFMMYLLSPEGAALDNTHTCVFQDMNQPLAHYFISSSHNTYLTDSQIGGPSSTEAYVRAFAQGCRCVELDCWEGPGGEPVIYHGHTLTSKILFRDVVQAVRDHAFTLSPYPVILSLENHCGLEQQAAMARHLCTILGDMLVTQALDSPNPEELPSPEQLKGRVLVKGKKLPAARSEDGRALSDREEEEEDDEEEEEEVEAAAQRRLAKQISPELSALAVYCHATRLRTLHPAPNAPQPCQVSSLSERKAKKLIREAGNSFVRHNARQLTRVYPLGLRMNSANYSPQEMWNSGCQLVALNFQTPGYEMDLNAGRFLVNGQCGYVLKPACLRQPDSTFDPEYPGPPRTTLSIQVLTAQQLPKLNAEKPHSIVDPLVRIEIHGVPADCARQETDYVLNNGFNPRWGQTLQFQLRAPELALVRFVVEDYDATSPNDFVGQFTLPLSSLKQGYRHIHLLSKDGASLSPATLFIQIRIQRS [PLCD3] | 0.427 | 0.0629 | 0.0889 | -0.344 | 51.6 °C | 48.9 °C |
| MSTKNFRVSDGDWICPDKKCGNVNFARRTSCNRCGREKTTEAKMMKAGGTEIGKTLAEKSRGLFSANDWQCKTCSNVNWARRSECNMCNTPKYAKLEERTGYGGGFNERENVEYIEREESDGEYDEFGRKKKKYRGKAVGPASILKEVEDKESEGEEEDEDEDLSKYKLDEDEDEDDADLSKYNLDASEEEDSNKKKSNRRSRSKSRSSHSRSSSRSSSPSSSRSRSRSRSRSSSSSQSRSRSSSRERSRSRGSKSRSSSRSHRGSSSPRKRSYSSSSSSPERNRKRSRSRSSSSGDRKKRRTRSRSPERRHRSSSGSSHSGSRSSSKKK [ZRANB2] | 0.299 | 0.397 | -0.011 | -0.0186 | 58 °C | – |
| GFM1 | -0.899 | 0.337 | -0.108 | 0.0415 | 50.3 °C | 50.5 °C |
| MELFLAGRRVLVTGAGKGIGRGTVQALHATGARVVAVSRTQADLDSLVRECPGIEPVCVDLGDWEATERALGSVGPVDLLVNNAAVALLQPFLEVTKEAFDRSFEVNLRAVIQVSQIVARGLIARGVPGAIVNVSSQCSQRAVTNHSVYCSTKGALDMLTKVMALELGPHKIRVNAVNPTVVMTSMGQATWSDPHKAKTMLNRIPLGKFAEVEHVVNAILFLLSDRSGMTTGSTLPVEGGFWAC [DCXR] | -1.92 | -1.77 | -0.0268 | 0.282 | 57.7 °C | 55.7 °C |
| OLA1 | 1.23 | 0.644 | -0.109 | 0.346 | 51.3 °C | 51.2 °C |
| MAAASGSVLQRCIVSPAGRHSASLIFLHGSGDSGQGLRMWIKQVLNQDLTFQHIKIIYPTAPPRSYTPMKGGISNVWFDRFKITNDCPEHLESIDVMCQVLTDLIDEEVKSGIKKNRILIGGFSMGGCMAIHLAYRNHQDVAGVFALSSFLNKASAVYQALQKSNGVLPELFQCHGTADELVLHSWAEETNSMLKSLGVTTKFHSFPNVYHELSKTELDILKLWILTKLPGEMEKQK [LYPLAL1] | 1.32 | 0.974 | -0.0182 | 0.361 | 52 °C | 52.3 °C |
| MADKEAGGSDGPRETAPTSAYSSPARSLGDTGITPLSPSHIVNDTDSNVSEQQSFLVVVAVDFGTTSSGYAYSFTKEPECIHVMRRWEGGDPGVSNQKTPTTILLTPERKFHSFGYAARDFYHDLDPNEAKQWLYLEKFKMKLHTTGDLTMDTDLTAANGKKVKALEIFAYALQYFKEQALKELSDQAGSEFENSDVRWVITVPAIWKQPAKQFMRQAAYQAGLASPENSEQLIIALEPEAASIYCRKLRLHQMIELSSKAAVNGYSGSDTVGAGFTQAKEHIRRNRQSRTFLVENVIGEIWSELEEGDKYVVVDSGGGTVDLTVHQIRLPEGHLKELYKATGGPYGSLGVDYEFEKLLYKIFGEDFIEQFKIKRPAAWVDLMIAFESRKRAAAPDRTNPLNITLPFSFIDYYKKFRGHSVEHALRKSNVDFVKWSSQGMLRMSPDAMNALFKPTIDSIIEHLRDLFQKPEVSTVKFLFLVGGFAEAPLLQQAVQAAFGDQCRIIIPQDVGLTILKGAVLFGLDPAVIKVRRSPLTYGVGVLNRYVEGKHPPEKLLVKDGTRWCTDVFDKFISADQSVALGELVKRSYTPAKPSQLVIVINIYSSEHDNVSFITDPGVKKCGTLRLDLTGTSGTAVPARREIQTLMQFGDTEIKATAIDIATSKSVKVGIDFLNY [HSPA12A] | 0.628 | 1 | -0.113 | -0.123 | 52.1 °C | 52.7 °C |
| MAAHGGSAASSALKGLIQQFTTITGASESVGKHMLEACNNNLEMAVTMFLDGGGIAEEPSTSSASVSTVRPHTEEEVRAPIPQKQEILVEPEPLFGAPKRRRPARSIFDGFRDFQTETIRQEQELRNGGAIDKKLTTLADLFRPPIDLMHKGSFETAKECGQMQNKWLMINIQNVQDFACQCLNRDVWSNEAVKNIIREHFIFWQVYHDSEEGQRYIQFYKLGDFPYVSILDPRTGQKLVEWHQLDVSSFLDQVTGFLGEHGQLDGLSSSPPKKCARSESLIDASEDSQLEAAIRASLQETHFDSTQTKQDSRSDEESESELFSGSEEFISVCGSDEEEEVENLAKSRKSPHKDLGHRKEENRRPLTEPPVRTDPGTATNHQGLPAVDSEILEMPPEKADGVVEGIDVNGPKAQLMLRYPDGKREQITLPEQAKLLALVKHVQSKGYPNERFELLTNFPRRKLSHLDYDITLQEAGLCPQETVFVQERN [UBXN7] | -0.156 | -0.248 | -0.138 | 0.148 | 52.8 °C | 52.8 °C |
